Columns and labels:
[1] = target: HLA DQ molecule DQB1*0503 (human); assay: inhibition of radiolabeled peptide binding to purified HLA DQ
[2] = target: HLA DQ molecule DQB1*0502 (human); assay: as above
[3] = target: HLA DQ molecule DQB1*0202 (human); assay: as above
[4] = target: T1, HLA-DQ molecule DQB1*0501 (human, limits assumed); assay: inhibition of radiolabeled peptide binding to purified HLA
T1 MHC II alpha: not shown
T1 MHC II beta: not shown

[5] = target: HLA-DQ molecule DQB1*0502 (human); assay: as above
[6] = target: HLA-DQ molecule DQB1*0602 (human); assay: as above
[7] = target: HLA-DQ molecule DQB1*0202 (human); assay: as above
[8] = target: HLA-DQ molecule DQB1*0503 (human); assay: as above
[9] = target: HLA-DQ molecule DQB1*0602 (human); assay: competition: inhibition of radiolabeled peptide binding to purified HLA
[10] = target: HLA-DQ molecule DQB1*0503 (human); assay: as above
[11] = target: HLA-DQ molecule DQB1*0502 (human); assay: as above
[12] = target: HLA-DQ molecule DQB1*0202 (human); assay: as above
[13] = target: HLA DQ molecule DQB1*0602 (human); assay: inhibition of radiolabeled peptide binding to purified HLA DQ
[14] = target: HLA-DP molecule DPB1*2001 (human); assay: inhibition of radiolabeled peptide binding to purified HLA-DP
[15] = target: T2, HLA-DP molecule DPB1*0201 (human, UniProt P20036 29-222; P04440 30-225, limits assumed); assay: as above
T2 MHC II alpha: not shown
T2 MHC II beta: not shown

[16] = target: T3, HLA-DP molecule DPB1*0101 (human, UniProt P20036 29-222; P04440 30-225, limits assumed); assay: as above
T3 MHC II alpha: not shown
T3 MHC II beta: not shown

[17] = target: T4, HLA-DP molecule DPB1*0501 (human, UniProt P20036 29-222; P04440 30-225, limits assumed); assay: as above
T4 MHC II alpha: not shown
T4 MHC II beta: not shown

[18] = target: HLA DQ molecule DQB1*0503 (human); assay: inhibition of radiolabeled peptide binding to purified HLA class II
[19] = target: HLA DQ molecule DQB1*0502 (human); assay: as above
[20] = target: HLA DQ molecule DQB1*0602 (human); assay: as above
[21] = target: HLA DQ molecule DQB1*0202 (human); assay: as above
[22] = target: T5, HLA-DP molecule DPB1*0401 (human); assay: inhibition of radiolabeled peptide binding to purified HLA-DP
T5 chain 1: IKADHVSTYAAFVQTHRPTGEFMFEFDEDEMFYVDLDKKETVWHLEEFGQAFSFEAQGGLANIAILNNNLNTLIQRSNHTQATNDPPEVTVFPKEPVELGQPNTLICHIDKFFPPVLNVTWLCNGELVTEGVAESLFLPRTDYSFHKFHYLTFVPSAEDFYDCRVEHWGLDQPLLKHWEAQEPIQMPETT
T5 chain 2: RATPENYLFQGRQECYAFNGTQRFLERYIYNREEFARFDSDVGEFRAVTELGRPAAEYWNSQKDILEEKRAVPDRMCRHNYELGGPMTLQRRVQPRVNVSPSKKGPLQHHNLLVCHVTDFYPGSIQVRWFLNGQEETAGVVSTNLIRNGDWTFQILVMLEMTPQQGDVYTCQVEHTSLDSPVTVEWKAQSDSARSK

[23] = target: HLA-DQ molecule DQB1*0301 (human, UniProt P01909 24-216; P01920 33-230, limits assumed); assay: inhibition of radiolabeled peptide binding to purified HLA-DQ
[24] = target: T6, HLA-DQ molecule DQB1*0302 (human, UniProt P01909 24-216; P01920 33-230, limits assumed); assay: as above
T6 MHC II alpha: not shown
T6 MHC II beta: not shown

[25] = target: HLA-DQ molecule DQB1*0503 (human); assay: as above
[26] = target: HLA-DQ molecule DQB1*0602 (human); assay: as above
[27] = target: T7, HLA-DQ molecule DQB1*0402 (human, UniProt P01909 24-216; P01920 33-230, limits assumed); assay: as above
T7 MHC II alpha: not shown
T7 MHC II beta: not shown

[28] = target: HLA-DQ molecule DQB1*0202 (human); assay: as above
[29] = target: T8, HLA DQ molecule DQB1*0501 (human, limits assumed); assay: inhibition of radiolabeled peptide binding to purified HLA class II
T8 MHC II alpha: not shown
T8 MHC II beta: not shown

[30] = target: T9, HLA DQ molecule DQB1*0302 (human, UniProt P01909 24-216; P01920 33-230, limits assumed); assay: as above
T9 MHC II alpha: not shown
T9 MHC II beta: not shown

[31] = target: HLA-DP molecule DPB1*1401 (human); assay: inhibition of radiolabeled peptide binding to purified HLA-DP
[32] = target: T10, HLA-DP DPB1*0401 (human); assay: as above
T10 chain 1: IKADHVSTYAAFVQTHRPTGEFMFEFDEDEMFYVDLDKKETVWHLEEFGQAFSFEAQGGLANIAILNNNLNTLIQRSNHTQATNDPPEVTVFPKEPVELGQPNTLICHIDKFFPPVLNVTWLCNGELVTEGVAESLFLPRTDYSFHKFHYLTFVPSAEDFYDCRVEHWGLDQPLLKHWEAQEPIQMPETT
T10 chain 2: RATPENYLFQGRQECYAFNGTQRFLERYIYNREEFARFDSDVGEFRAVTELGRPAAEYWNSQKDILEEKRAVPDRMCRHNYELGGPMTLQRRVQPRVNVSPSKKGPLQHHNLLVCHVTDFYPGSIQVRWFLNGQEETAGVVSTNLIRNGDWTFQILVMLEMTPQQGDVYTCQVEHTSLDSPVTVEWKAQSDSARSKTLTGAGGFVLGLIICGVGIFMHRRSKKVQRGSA

[33] = target: T11, HLA-DQ molecule DQB1*0501 (human, limits assumed); assay: inhibition of radiolabeled peptide binding to purified HLA-DQ
T11 MHC II alpha: not shown
T11 MHC II beta: not shown

B1: Sal k 1 1 peptide, position 191 (Peptide ID 3324.1590) (peptide)
peptide: EGTVDFIFGEARSLY
[1]
  IC50: 2360 nM
[2]
  IC50: 6.85 µM
[3]
  IC50: 3.12 µM

B2: Der p 4 peptide 3324.0978 (position 386) (peptide)
peptide: EIYNMVKFRMIAGQE
[4]
  IC50: 3.71 µM
[5]
  IC50: 26.6 µM
[6]
  IC50: 368 nM
[7]
  IC50: 29.1 µM
[8]
  IC50: 11.2 µM

B3: Alt a 5 peptide, position 51, Peptide ID 3324.0065 (peptide)
peptide: INELIASGSEKLASV
[9]
  IC50: 302 nM
[10]
  IC50: 7.54 µM
[11]
  IC50: 25.9 µM

B4: Alt a 7 peptide, position 190, Peptide ID 3324.0080 (peptide)
peptide: AQGKAFYEAVAKAHQ
[12]
  IC50: 50 µM
[9]
  IC50: 2360 nM

B5: Poa p 5 peptide, position 51 (Peptide ID 3324.1580) (peptide)
peptide: QKLMEDINVGFKAAV
[1]
  IC50: 5210 nM
[13]
  IC50: 1290 nM
[3]
  IC50: 8.07 µM

B6: Lol p 5 1 peptide, position 236, DSYKFIPTLVAAVKQ (Peptide ID 3324.1165) (peptide)
peptide: DSYKFIPTLVAAVKQ
[14]
  IC50: 12 nM
[15]
  IC50: 69 nM
[16]
  IC50: 79 nM
[17]
  IC50: 0.0069 µM

B7: Poa p 5 peptide, position 121 (Peptide ID 3324.1570) (peptide)
peptide: ATPEAKFDSFVAAFT
[1]
  IC50: 910 nM
[2]
  IC50: 8 µM

B8: Fel d 1 1 (46-60) peptide QVAQYKALPVVLENA, Peptide ID 3324.1051 (peptide)
peptide: QVAQYKALPVVLENA
[18]
  IC50: 610 nM
[19]
  IC50: 552 nM
[20]
  IC50: 1600 nM
[21]
  IC50: 21.4 µM

B9: Poa p 5 peptide, position 61 (Peptide ID 3324.1575) (peptide)
peptide: FKAAVAAAAGAPPAD
[1]
  IC50: 1380 nM
[13]
  IC50: 793 nM
[2]
  IC50: 6.78 µM
[3]
  IC50: 25.7 µM

B10: Pha a 5 peptide, position 181, NDKFTVFEGAFNKAI (Peptide ID 3324.1442) (peptide)
peptide: NDKFTVFEGAFNKAI
[14]
  IC50: 97 nM
[15]
  IC50: 28 nM
[22]
  IC50: 177 nM
[16]
  IC50: 613 nM

B11: Alt a 6 peptide, position 161, Peptide ID 3324.0073 (peptide)
peptide: GGRLAFQEFMIVPCE
[12]
  IC50: 32.1 µM
[9]
  IC50: 1290 nM
[10]
  IC50: 4.94 µM

B12: Cha o 1 (96-110) peptide NLNIKLNMPLYIAGN (peptide)
peptide: NLNIKLNMPLYIAGN
[23]
  IC50: 31.9 µM
[24]
  IC50: 50 µM
[25]
  IC50: 10.7 µM
[26]
  IC50: 2860 nM
[27]
  IC50: 30.4 µM
[28]
  IC50: 39.7 µM

B13: Pen ch 13 (101-115) peptide PAVKYIEPDMIVNAT, Peptide ID 3324.1304 (peptide)
peptide: PAVKYIEPDMIVNAT
[18]
  IC50: 1790 nM
[29]
  IC50: 119 nM
[19]
  IC50: 1960 nM
[20]
  IC50: 549 nM
[30]
  IC50: 822 nM

B14: Lol p 5 1 peptide, position 306, PAAAYATATPAAATA (Peptide ID 3324.1184) (peptide)
peptide: PAAAYATATPAAATA
[14]
  IC50: 611 nM
[15]
  IC50: 3490 nM
[31]
  IC50: 299 nM
[17]
  IC50: 12.4 µM

B15: Sal k 1 1 peptide 191-205, EGTVDFIFGEARSLY (Peptide ID 3324.1590) (peptide)
peptide: EGTVDFIFGEARSLY
[32]
  IC50: 2040 nM

B16: Sal k 1 1 peptide, position 321 (Peptide ID 3324.1589) (peptide)
peptide: FTSLEYIEAAKWLLP
[13]
  IC50: 1300 nM

B17: Cha o 1 (86-100) peptide ERSLWIIFSKNLNIK (peptide)
peptide: ERSLWIIFSKNLNIK
[25]
  IC50: 0.301 µM
[26]
  IC50: 432 nM
[33]
  IC50: 729 nM

B18: Poa p 5 peptide, position 56 (Peptide ID 3324.1571) (peptide)
peptide: DINVGFKAAVAAAAG
[13]
  IC50: 34 nM
[2]
  IC50: 5.41 µM

Source: patent US20150004189A1 (published 2015)
